The nature of the data set: protein stability index of a GFP-peptide fusion (GPS, HEK-293T) (PSI 1-6); higher = more stable.
Setting [1] is: treatment: DMSO, c terminus: a fixed tail appended.
[2] abbreviates: treatment: MLN4924 1 uM, 8 h, c terminus: a fixed tail appended.
Where [3] appears, read: treatment: DMSO, c terminus: native.
Setting [4] is: treatment: MLN4924 1 uM, 8 h, c terminus: native.

± gives the standard deviation.
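Also: 24-mer peptide tiles fused after GFP, lentivirally expressed, FACS-sorted into six equal bins by GFP/DsRed ratio, decoded by Illumina sequencing, PSI is the read-weighted mean bin number.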

With MSTEEQYRIRQVNIYYYLEDDSMS [EFHC1], the protein stability index was found to be 2.19 ± 0.26 under setting [1] and 2.13 ± 0.3 under setting [2].

On to MSVLWLEHDRETRMQYAPDLMKRL [KLHL14], for which the protein stability index was 2.35 ± 0.11 under setting [1] and 2.45 ± 0.15 under setting [2].

With MSWAKLARQATNLKVNFFFERIMK [FBXO39], the protein stability index under setting [1] came out at 2.34 ± 0.19 and the protein stability index under setting [2] came to 2.22 ± 0.35.

As for MTAPAGPRGSETERLLTPNPGYGT [MCOLN1], the protein stability index by setting is: under setting [1], 4.23 ± 0.22; under setting [2], 4.2 ± 0.42.

For MVEDDSRKEMTAACTPRRRIINLT [MLH1], the protein stability index was determined as 3.95 ± 0.059 under setting [1] and 3.93 ± 0.29 under setting [2].

The sequence NAIRVHHALATRASDYSKKSNVLK [PSD2] came in with a protein stability index under setting [1] of 3.46 ± 0.31 and a protein stability index under setting [2] of 3.5 ± 0.12.

With NCKLATRAKDFLPADIQAQFAISR [SNX8], the protein stability index amounted to 2.45 ± 0.21 under setting [1] and 2.73 ± 0.52 under setting [2].

On to NDIPHSIPLEQGSSCNGPGQTTGH [FAN1], for which the protein stability index is 5.24 ± 0.18 under setting [1] and 5.23 ± 0.1 under setting [2].

In turn, NDLDRIAQPNYIPTQQDVLRTRVK [GNAI1] yielded a protein stability index under setting [1] of 4.81 ± 0.13 and a protein stability index under setting [2] of 4.92 ± 0.15.

Regarding NDMSPSNNVVPIHVPPTTENKPKV [RAB11A], the protein stability index was 5.42 ± 0.12 under setting [1] and 5.33 ± 0.19 under setting [2].

Take NELQHDLDVVSDALAKVSRKPSI [TPH1]: the protein stability index came out at 5.17 ± 0.39 under setting [3] and 5.33 ± 0.11 under setting [4].

Take NGHTDVADVLLQAGADLEHESEGG [ANKRD17]: the protein stability index amounted to 5.37 ± 0.17 under setting [1] and 5.28 ± 0.048 under setting [2].

In the case of NGRGELVESLKRFCASTRLPPTPL [AUP1], the protein stability index runs as follows: under setting [1], 3.18 ± 0.38; under setting [2], 2.94 ± 0.5.

NGRHKIPESQFPEFSTSLFSGSLE [SRPK2]: the protein stability index came to 3.66 ± 0.22 under setting [1] and 3.8 ± 0.19 under setting [2].

For NHANGLTLVSRAHQLVMEGYNWCH [PPP2CA], the protein stability index under setting [1] turned out to be 2.6 ± 0.16 and the protein stability index under setting [2] worked out at 2.49 ± 0.29.

As for NHCMLSPSSSGHLADSDTLSSAEE [C18orf25], the protein stability index by setting is: under setting [1], 5.36 ± 0.19; under setting [2], 5.4 ± 0.098.

Consider NHGYAEPAAGRELPPDMTVVPGDH [KCNA3], for which the protein stability index by setting is: under setting [1], 5.21 ± 0.14; under setting [2], 5.24 ± 0.24.

NHVAVAARYAQQKHRIRRVLIVDW [HDAC6]: the protein stability index is, setting by setting: under setting [1], 2.34 ± 0.72; under setting [2], 2.09 ± 0.27.

Regarding NISGLRFETQLKTLCQFPETLLGD [KCNA3], the protein stability index stood at 2.89 ± 0.26 under setting [1] and 3.03 ± 0.23 under setting [2].

NKQAYDLAKALLKRTAQAIEPYIT [PDS5B]: the protein stability index reads like this: under setting [1], 2.54 ± 0.46; under setting [2], 2.63 ± 0.37.

Sequence NLIKSENYGKILVEKNEHCIENNI [R3HDM1] gave a protein stability index under setting [1] of 3.5 ± 0.5 and a protein stability index under setting [2] of 3.49 ± 0.65.

Take NLIYRDVKPENFLIGRPGNKTQQV [CSNK1G3]: the protein stability index under setting [1] was determined as 3.27 ± 0.1 and the protein stability index under setting [2] came to 3.25 ± 0.22.

Consider NLLLAKGANINAFDKKDRRALHWA [ANKRD44], for which the protein stability index under setting [1] is 2.32 ± 0.34 and the protein stability index under setting [2] was found to be 2.5 ± 0.17.

Take NLPCNKFKNRLVNIMPYESTRVCL [PTPRD]: the protein stability index came out at 2.15 ± 0.23 under setting [1] and 2.65 ± 0.96 under setting [2].

Consider NMEELTEVITAAEFHPHHCNTFVY [PPP2R2B], for which the protein stability index runs as follows: under setting [1], 2.38 ± 0.25; under setting [2], 2.59 ± 0.33.

Take NMLFQQNKDGIGEICLWGRHIFMG [ACSBG2]: the protein stability index is 2.3 ± 0.33 under setting [1] and 2.3 ± 0.54 under setting [2].

Consider NNDCRIYVGNLPPDIRTKDIEDVF [SRSF1], for which the protein stability index by setting is: under setting [1], 3.09 ± 0.31; under setting [2], 3.3 ± 0.37.

NPFQDPAVIQHRPSRQYATLDVYN [SCAMP3]: the protein stability index came to 3.6 ± 0.28 under setting [1] and 3.62 ± 0.19 under setting [2].

As for NPKWTKWLQKLCCPCCFGRDCLVL [PI4K2A], the protein stability index turned out to be 2.79 ± 0.3 under setting [1] and 2.72 ± 0.15 under setting [2].

In the case of NPNSSSGKGSGGNAGSYIPSYTSW [DLX1], the protein stability index was determined as 3.44 ± 0.14 under setting [1] and 3.43 ± 0.4 under setting [2].

With NQSVEPKKEEPEPETEAVSSSQEI [ZMYND11], the protein stability index came to 5.25 ± 1 under setting [1] and 5.29 ± 0.52 under setting [2].

As for NRRGGPPFAFVEFEDPRDAEDAVY [SRSF1], the protein stability index runs as follows: under setting [1], 3.91 ± 0.21; under setting [2], 4.21 ± 0.26.

Consider NSASDPSLKDGLSDSDSELSSSEG [PSD2], for which the protein stability index runs as follows: under setting [1], 5.69 ± 0.14; under setting [2], 5.61 ± 0.19.

Sequence NSDQTTCRIQDLCAMEDHNCEQLC [MATN2] registered a protein stability index under setting [1] of 4.04 ± 0.29 and a protein stability index under setting [2] of 4.05 ± 0.23.

Turning to NSKEDAFSGTDWMLEKMDLKEFDL [ATF4], the protein stability index is 4.6 ± 0.26 under setting [1] and 4.55 ± 0.2 under setting [2].

Turning to NSSVWNSHLQTNYSKTFQRSNVDF [NECAB1], the protein stability index is, setting by setting: under setting [1], 2.65 ± 0.18; under setting [2], 2.77 ± 0.32.

As to NTLSVSYKKGRMMKDISNLEENDE [SLC6A17], the protein stability index by setting is: under setting [1], 4.91 ± 0.3; under setting [2], 5.08 ± 0.23.

For NTQTPVQPPPPPPPPPMQPTVPSA [CCDC6], the protein stability index runs as follows: under setting [1], 5.05 ± 0.48; under setting [2], 5 ± 0.1.

Take NVIETCKEAGVQKLILTSSASVIF [NSDHL]: the protein stability index amounted to 2.69 ± 0.27 under setting [1] and 2.86 ± 0.71 under setting [2].

Take NVLKIAPESAIKFMAYEQIKRLVG [SLC25A25]: the protein stability index runs as follows: under setting [1], 3.07 ± 0.54; under setting [2], 3.04 ± 0.67.

For NVMTQSFGAVNLSSPSNMLPVRPQ [CLINT1], the protein stability index runs as follows: under setting [1], 3.86 ± 0.2; under setting [2], 3.99 ± 0.51.

Turning to NWATTPSSQKKDTSSSTVVSTQRS [TIA1], the protein stability index runs as follows: under setting [1], 4.83 ± 0.19; under setting [2], 4.92 ± 0.18.

As for PACLGQPHTPGKPTSSCTSRSAPP [FOXJ1], the protein stability index reads like this: under setting [1], 4.51 ± 0.13; under setting [2], 4.69 ± 0.11.

Take PAFTVWCGSFQVTTGLQVPSAVRC [FSD1]: the protein stability index under setting [1] came out at 2.63 ± 0.6 and the protein stability index under setting [2] stood at 2.56 ± 0.54.

As for PAPPSDALLDLHFPSDHLGDLGDP [TFE3], the protein stability index by setting is: under setting [1], 5 ± 0.23; under setting [2], 5.1 ± 0.17.

Consider PATGRSGPLPPPPPGAGGPPMPPP [WAS], for which the protein stability index stood at 4.74 ± 0.28 under setting [1] and 4.88 ± 0.22 under setting [2].

With PAVRQRVIEEAKTAFLLNIQLFEE [HMOX1], the protein stability index is, setting by setting: under setting [1], 2.66 ± 0.37; under setting [2], 3.17 ± 0.26.

In turn, PCELPCKEYDVARNTGAYTSSGLA [TEKT4] gave a protein stability index under setting [1] of 4.18 ± 0.19 and a protein stability index under setting [2] of 4.23 ± 0.13.

Consider PDCGKAFVSRYKLMRHMATHSPQK [PLAGL1], for which the protein stability index is, setting by setting: under setting [1], 2.88 ± 0.24; under setting [2], 3 ± 0.22.

For the sequence PDECGKTEFTRFLCSSPLEAETPP [ATE1], the protein stability index runs as follows: under setting [1], 4.8 ± 0.071; under setting [2], 4.88 ± 0.13.

In the case of PDEMRMQALLIRERILGPSHPDTS [FEM1A], the protein stability index was 3.29 ± 0.26 under setting [1] and 3.56 ± 0.19 under setting [2].

With PDPDAWLRALGELLRRDLGVGTSM [FANCE], the protein stability index worked out at 1.86 ± 0.28 under setting [1] and 1.9 ± 0.2 under setting [2].

As to PEAAVLFRQMATALAHCHQHGLVL [TRIB3], the protein stability index came to 2.92 ± 0.55 under setting [1] and 2.88 ± 0.48 under setting [2].

Take PEARSRDATPPVSPINMEDQERIK [JUNB]: the protein stability index stood at 5.37 ± 0.38 under setting [1] and 5.42 ± 0.33 under setting [2].

With PEEELDFFEILRLFFPVIYDVKYL [CNOT7], the protein stability index runs as follows: under setting [1], 2.35 ± 0.51; under setting [2], 2.47 ± 0.61.

Turning to PEELRKVFITYSMDTAMEVVKFVN [TRAF3IP2], the protein stability index is 2.24 ± 0.46 under setting [1] and 2.08 ± 0.37 under setting [2].

Regarding PEFELLWKDIIHNPQALSPQFTGI [INTS3], the protein stability index reads like this: under setting [1], 2.16 ± 0.15; under setting [2], 2.21 ± 0.32.

Turning to PENTNRQLLLQFERLVVLDYIIRN [PI4K2A], the protein stability index by setting is: under setting [1], 2.77 ± 0.34; under setting [2], 2.56 ± 0.68.

Take PFTRRYYKEKFGITDLPRIDVSKR [EFHC1]: the protein stability index was determined as 3.01 ± 0.36 under setting [1] and 3.3 ± 0.095 under setting [2].

Take PGAEEAQDPEGKGEQEHSQQKEEE [CHGA]: the protein stability index was determined as 5.65 ± 0.15 under setting [1] and 5.58 ± 0.43 under setting [2].

With PGAPPGRDLASVPPELTASRQSFR [DVL3], the protein stability index came to 4.7 ± 0.23 under setting [1] and 4.84 ± 0.12 under setting [2].

Turning to PGDFDRNVPRICGVCGDRATGFHF [VDR], the protein stability index by setting is: under setting [1], 2.19 ± 0.13; under setting [2], 2.64 ± 0.27.

Regarding PGPAPGSPGELEEDLLLPGACPGA [WEE1], the protein stability index is, setting by setting: under setting [1], 5.24 ± 0.52; under setting [2], 5.49 ± 0.13.

With PGPPAAPRARRRLGSGPDRELRKP [PWWP2B], the protein stability index stood at 5.03 ± 0.56 under setting [1] and 5.12 ± 0.35 under setting [2].

As to PGPREALSQLRVLCCEWLRPEKHT [ZNF232], the protein stability index runs as follows: under setting [1], 2.36 ± 0.21; under setting [2], 2.15 ± 0.4.

PGQEAQRVVCGIDSSMILTVPGQA [NEK8]: the protein stability index reads like this: under setting [1], 3.78 ± 0.23; under setting [2], 3.81 ± 0.22.

Sequence PGRRDEDAGEGIQCSQRMLSFSDA [TMEM175] registered a protein stability index under setting [1] of 5.07 ± 0.18 and a protein stability index under setting [2] of 4.91 ± 0.3.

As to PGSNLNLLTNNSGTPKDHDSPENG [ETS2], the protein stability index reads like this: under setting [1], 5.33 ± 0.22; under setting [2], 5.31 ± 0.26.

PKAQSAMSPYLVPDTQALCHHLPV [SMG5] returned a protein stability index under setting [1] of 3.34 ± 0.2 and a protein stability index under setting [2] of 3.38 ± 0.12.

Take PKWGWEQLEVTCTPYLKETLNSIW [POMT2]: the protein stability index is 2.49 ± 0.58 under setting [1] and 2.12 ± 0.61 under setting [2].

Turning to PLVLSYIDLSAWCYYCQAYVHHQA [HDAC6], the protein stability index amounted to 2.97 ± 0.81 under setting [1] and 3.27 ± 0.49 under setting [2].

For the sequence PLVTMDDAMERTVQSFRHLRRVK [NSDHL], the protein stability index runs as follows: under setting [3], 3 ± 0.25; under setting [4], 3.23 ± 0.18.

These data come from the supplement of paper PMC10567573.
